Experiment [1] deals with T1, human FLT3 on AML5 cells (human) (UniProt P36888).
T1 sequence (looked up): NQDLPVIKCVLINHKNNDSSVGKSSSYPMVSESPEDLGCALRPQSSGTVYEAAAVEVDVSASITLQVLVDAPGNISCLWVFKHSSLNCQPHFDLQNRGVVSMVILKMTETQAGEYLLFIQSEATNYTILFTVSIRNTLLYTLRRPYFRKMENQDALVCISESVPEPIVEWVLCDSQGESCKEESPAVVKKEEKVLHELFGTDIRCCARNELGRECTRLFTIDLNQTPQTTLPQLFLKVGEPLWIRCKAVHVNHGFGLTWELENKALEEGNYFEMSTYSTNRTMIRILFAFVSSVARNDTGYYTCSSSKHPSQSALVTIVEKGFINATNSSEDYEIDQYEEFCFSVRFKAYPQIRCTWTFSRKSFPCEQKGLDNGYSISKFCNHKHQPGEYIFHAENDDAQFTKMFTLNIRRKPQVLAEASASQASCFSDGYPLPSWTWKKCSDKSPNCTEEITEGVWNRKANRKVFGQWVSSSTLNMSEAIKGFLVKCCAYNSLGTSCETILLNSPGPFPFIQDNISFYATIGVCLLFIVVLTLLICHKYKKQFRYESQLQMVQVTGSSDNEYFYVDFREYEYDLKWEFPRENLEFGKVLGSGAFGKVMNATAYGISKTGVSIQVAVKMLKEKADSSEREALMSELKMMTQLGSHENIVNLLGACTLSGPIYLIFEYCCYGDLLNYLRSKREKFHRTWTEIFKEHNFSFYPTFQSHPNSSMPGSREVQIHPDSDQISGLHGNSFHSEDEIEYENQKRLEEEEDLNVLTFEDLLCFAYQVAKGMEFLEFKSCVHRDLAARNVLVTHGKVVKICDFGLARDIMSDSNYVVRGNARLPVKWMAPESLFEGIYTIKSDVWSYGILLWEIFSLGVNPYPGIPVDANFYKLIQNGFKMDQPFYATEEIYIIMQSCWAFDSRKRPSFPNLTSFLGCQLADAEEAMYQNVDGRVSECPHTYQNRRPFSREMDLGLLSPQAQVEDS
Kind of experiment: cell-based or functional assay.

Experiment [2] concerns the target T2, mouse FLT3 on M1 cells (mouse) (UniProt Q00342).
T2 sequence (looked up): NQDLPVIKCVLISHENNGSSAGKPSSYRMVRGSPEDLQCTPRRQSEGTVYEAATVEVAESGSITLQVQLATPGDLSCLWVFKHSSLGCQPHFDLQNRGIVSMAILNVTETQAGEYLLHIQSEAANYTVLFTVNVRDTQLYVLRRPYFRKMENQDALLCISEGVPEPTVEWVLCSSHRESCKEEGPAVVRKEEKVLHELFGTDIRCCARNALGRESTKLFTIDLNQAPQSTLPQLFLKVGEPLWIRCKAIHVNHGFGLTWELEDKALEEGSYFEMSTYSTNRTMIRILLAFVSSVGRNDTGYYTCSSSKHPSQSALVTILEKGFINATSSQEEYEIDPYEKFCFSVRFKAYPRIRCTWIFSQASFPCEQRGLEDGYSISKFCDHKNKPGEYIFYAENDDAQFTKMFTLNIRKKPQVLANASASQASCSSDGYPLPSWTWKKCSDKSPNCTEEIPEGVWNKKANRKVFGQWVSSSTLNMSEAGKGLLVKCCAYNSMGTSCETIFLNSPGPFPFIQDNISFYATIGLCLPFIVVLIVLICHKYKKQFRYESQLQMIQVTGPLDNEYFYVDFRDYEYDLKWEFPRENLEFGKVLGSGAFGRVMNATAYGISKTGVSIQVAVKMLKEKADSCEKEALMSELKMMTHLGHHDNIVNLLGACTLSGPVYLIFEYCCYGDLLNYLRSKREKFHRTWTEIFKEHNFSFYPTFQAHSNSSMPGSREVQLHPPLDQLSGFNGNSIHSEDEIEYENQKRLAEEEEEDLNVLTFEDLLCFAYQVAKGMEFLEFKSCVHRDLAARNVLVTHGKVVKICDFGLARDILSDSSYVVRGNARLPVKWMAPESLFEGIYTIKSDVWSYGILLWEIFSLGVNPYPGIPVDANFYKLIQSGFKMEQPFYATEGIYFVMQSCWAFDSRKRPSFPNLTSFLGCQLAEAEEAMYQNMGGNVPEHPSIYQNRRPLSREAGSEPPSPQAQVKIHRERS
Kind of experiment: cell-based or functional assay.

B1: mouse FLT3-ligand mouse IgG2a (LALA-PG) fusion protein (SEQ ID NO:19) (Fc fusion)
chain: TPDCYFSHSPISSNFKVKFRELTDHLLKDYPVTVAVNLQDEKHCKALWSLFLAQRWIEQLKTVAGSKMQTLLEDVNTEIHFVTSCTFQPLPECLRFVQTNISHLLKDTCTQLLALKPCIGKACQNFSRCLEVQCQPDSSTLLPPRSPIALEATELPEPRGPTIKPCPPCKCPAPNAAGGPSVFIFPPKIKDVLMISLSPIVTCVVVDVSEDDPDVQISWFVNNVEVHTAQTQTHREDYNSTLRVVSALPIQHQDWMSGKEFKCKVNNKDLGAPIERTISKPKGSVRAPQVYVLPPPEEEMTKKQVTLTCMVTDFMPEDIYVEWTNNGKTELNYKNTEPVLDSDGSYFMYSKLRVEKKNWVERNSYSCSVVHEGLHNHHTTKSFSRTPGK
For the molecule B1, in experiment [1], the EC50 (nM), Inducing Proliferation of AML5 Cells was determined as 0.171 nM.

B2: mouse FLT3-ligand mouse IgG2a (C136S LALA-PG) fusion protein (SEQ ID NO:20) (Fc fusion)
chain: TPDCYFSHSPISSNFKVKFRELTDHLLKDYPVTVAVNLQDEKHCKALWSLFLAQRWIEQLKTVAGSKMQTLLEDVNTEIHFVTSCTFQPLPECLRFVQTNISHLLKDTSTQLLALKPCIGKACQNFSRCLEVQCQPDSSTLLPPRSPIALEATELPEPRGPTIKPCPPCKCPAPNAAGGPSVFIFPPKIKDVLMISLSPIVTCVVVDVSEDDPDVQISWFVNNVEVHTAQTQTHREDYNSTLRVVSALPIQHQDWMSGKEFKCKVNNKDLGAPIERTISKPKGSVRAPQVYVLPPPEEEMTKKQVTLTCMVTDFMPEDIYVEWTNNGKTELNYKNTEPVLDSDGSYFMYSKLRVEKKNWVERNSYSCSVVHEGLHNHHTTKSFSRTPGK
Turning to B2, the EC50 (nM), Inducing Proliferation of AML5 Cells in experiment [1] amounted to 0.115 nM.

B3: recombinant human FLT3-ligand human IgG1 fusion protein (Fc fusion, UniProt P49771 27-185, looked up, not shown: a dimerising Fc or GST)
chain: TQDCSFQHSPISSDFAVKIRELSDYLLQDYPVTVASNLQDEELCGGLWRLVLAQRWMERLKTVAGSKMQGLLERVNTEIHFVTKCAFQPPPSCLRFVQTNISRLLQETSEQLVALKPWITRQNFSRCLELQCQPDSSTLPPPWSPRPLEATAPTAPQPP
In experiment [2], B3 came in with an EC50(nM), M1 IL-6 release assay of 0.117 nM and an Emax(pg/ml), M1 IL-6 release assay of 517 pg/mL.

B4: recombinant human FLT3-ligand (ligand, UniProt P49771 27-185, looked up)
chain: TQDCSFQHSPISSDFAVKIRELSDYLLQDYPVTVASNLQDEELCGGLWRLVLAQRWMERLKTVAGSKMQGLLERVNTEIHFVTKCAFQPPPSCLRFVQTNISRLLQETSEQLVALKPWITRQNFSRCLELQCQPDSSTLPPPWSPRPLEATAPTAPQPP
Molecule B4 showed an EC50 (nM), Inducing Proliferation of AML5 Cells in experiment [1] of 0.039 nM. Further, in experiment [2], the EC50(nM), M1 IL-6 release assay was found to be 0.024 nM and the Emax(pg/ml), M1 IL-6 release assay stood at 392 pg/mL.
